Results on twelve molecules are retold here after US20200040059A1.

One experiment concerns the target CD112R (human) (UniProt Q6DKI7). Kind of experiment: flow cytometry, cells expressing target, 25 nM. In general terms: A flow cytometer gives signals particle by particle.
Experiment [1] has as its target T1, CD226 (human) (UniProt Q15762).
T1 sequence: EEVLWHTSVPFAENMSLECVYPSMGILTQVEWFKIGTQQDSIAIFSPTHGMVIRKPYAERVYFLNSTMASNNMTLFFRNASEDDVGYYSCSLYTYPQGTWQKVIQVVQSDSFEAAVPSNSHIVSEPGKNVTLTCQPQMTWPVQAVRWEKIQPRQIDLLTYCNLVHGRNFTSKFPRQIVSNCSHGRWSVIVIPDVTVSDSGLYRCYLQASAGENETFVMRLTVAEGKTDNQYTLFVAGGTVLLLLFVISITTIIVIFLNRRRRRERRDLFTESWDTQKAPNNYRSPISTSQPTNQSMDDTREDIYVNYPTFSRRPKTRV
Kind of experiment: flow cytometry, cells expressing target, 25 nM.

The target of experiment [2] is T2, CD96 (UniProt P40200).
T2 sequence (looked up): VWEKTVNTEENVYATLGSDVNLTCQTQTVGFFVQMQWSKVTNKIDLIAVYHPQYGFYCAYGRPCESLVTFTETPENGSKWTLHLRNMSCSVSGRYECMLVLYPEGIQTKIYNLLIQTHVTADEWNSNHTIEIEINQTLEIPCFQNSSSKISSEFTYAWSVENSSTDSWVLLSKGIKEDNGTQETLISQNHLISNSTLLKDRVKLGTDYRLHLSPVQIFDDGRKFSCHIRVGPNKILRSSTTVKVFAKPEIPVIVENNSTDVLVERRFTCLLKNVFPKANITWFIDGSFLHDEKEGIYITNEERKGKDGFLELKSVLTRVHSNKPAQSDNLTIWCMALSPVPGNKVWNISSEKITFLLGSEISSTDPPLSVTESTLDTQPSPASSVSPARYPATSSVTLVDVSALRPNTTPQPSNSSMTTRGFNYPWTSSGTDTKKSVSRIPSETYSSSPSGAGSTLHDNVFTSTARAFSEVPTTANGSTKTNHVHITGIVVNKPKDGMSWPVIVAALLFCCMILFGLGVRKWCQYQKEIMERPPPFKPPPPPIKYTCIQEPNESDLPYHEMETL
Kind of experiment: flow cytometry, cells expressing target, 25 nM.

Experiment [3] addresses T3, TIGIT (human) (UniProt Q495A1).
T3 sequence: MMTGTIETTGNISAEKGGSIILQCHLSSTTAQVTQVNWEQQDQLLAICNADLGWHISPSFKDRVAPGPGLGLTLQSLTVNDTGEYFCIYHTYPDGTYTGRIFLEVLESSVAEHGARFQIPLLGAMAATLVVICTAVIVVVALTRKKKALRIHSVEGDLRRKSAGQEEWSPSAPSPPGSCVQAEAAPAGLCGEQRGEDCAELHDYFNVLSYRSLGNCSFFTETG
Kind of experiment: flow cytometry, cells expressing target, 25 nM.

The target in experiment [4] is T4, CD112R (full length, expressed on transfected cells) (human), Q6DKI7.
T4 chain: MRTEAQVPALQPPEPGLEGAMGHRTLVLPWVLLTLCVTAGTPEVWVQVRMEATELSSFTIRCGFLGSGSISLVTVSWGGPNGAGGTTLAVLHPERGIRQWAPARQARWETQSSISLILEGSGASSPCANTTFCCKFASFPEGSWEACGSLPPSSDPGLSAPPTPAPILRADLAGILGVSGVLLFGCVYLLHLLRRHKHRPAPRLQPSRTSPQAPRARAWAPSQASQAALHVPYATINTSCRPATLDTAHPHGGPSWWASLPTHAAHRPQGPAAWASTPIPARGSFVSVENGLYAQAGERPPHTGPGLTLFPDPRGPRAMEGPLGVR
Kind of experiment: flow cytometry, 20 nM; ratio to WT CD112 IgV-Fc. As to conditions: remark: other sources report otherwise.

Experiment [5] concerns the target T4, CD112R (full length, expressed on …). Kind of experiment: flow cytometry on cells expressing the target, 20 nM. The note with it: remark: other sources report otherwise.
In experiment [6] the target is CD112R, expressed on transfected cells (human) (UniProt Q6DKI7). Kind of experiment: flow cytometry on transfected cells.
Experiment [7] addresses CD96, expressed on transfected cells (UniProt P40200). Kind of experiment: flow cytometry on transfected cells.
Experiment [8] addresses T5, human TIGIT, full length, expressed on transfected cells (human) (UniProt Q495A1).
T5 sequence: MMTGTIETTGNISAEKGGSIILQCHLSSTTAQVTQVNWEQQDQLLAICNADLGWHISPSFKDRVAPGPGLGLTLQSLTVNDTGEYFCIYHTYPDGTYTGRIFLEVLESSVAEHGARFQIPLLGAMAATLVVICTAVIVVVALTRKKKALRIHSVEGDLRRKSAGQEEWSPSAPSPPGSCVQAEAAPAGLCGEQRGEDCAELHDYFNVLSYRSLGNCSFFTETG
Kind of experiment: flow cytometry on transfected cells.

In experiment [9] the target is T2, CD96. Kind of experiment: flow cytometry, cells.
Experiment [10] concerns the target T1, CD226 (human). Kind of experiment: flow cytometry, transfected cells.
Experiment [11] concerns the target T3, TIGIT (human). Kind of experiment: flow cytometry, transfected cells.
Experiment [12] deals with T3, TIGIT (human). Kind of experiment: flow cytometry, TIGIT-expressing cells.
The target of experiment [13] is human ICOS as used for the 'ICOS OD' read-out of Table 14 (human). Kind of experiment: binding read as OD; format not described.
Experiment [14] concerns the target human CD28, full-length, expressed on transfected Expi293 cells (human) (UniProt P10747). Kind of experiment: flow cytometry on CD28-expressing Expi293 cells.

human ICOS as used for the 'ICOS OD' read-out of Table 14 (human), sequence (Q9Y6W8 whole entry): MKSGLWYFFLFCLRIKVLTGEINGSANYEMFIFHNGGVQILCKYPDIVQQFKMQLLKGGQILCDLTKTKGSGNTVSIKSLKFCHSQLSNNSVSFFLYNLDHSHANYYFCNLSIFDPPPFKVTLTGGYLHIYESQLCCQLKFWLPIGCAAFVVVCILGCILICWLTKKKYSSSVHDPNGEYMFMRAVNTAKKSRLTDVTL

B1: CD155 variant IgV-Fc P18T, D23G, Q60R, S67L, L79P, F91S, T107M, V115A (Fc fusion, not shown: a dimerising Fc or GST; small tags and cut ends)
chain: PGTGDVVVQAPTQVTGFLGGSVTLPCYLQVPNMEVTHVSQLTWARHGESGSMAVFHRTQGPSYLESKRLEFVAARPGAELRNASLRMSGLRVEDEGNYTCLFVMFPQGSRSADIWL
For B1, the MFI at 25 nM is 874 MFI with CD112R (human), 30900 MFI with CD226 (human) [1], 109000 MFI with CD96 [2] and 64100 MFI in the experiment with TIGIT (human) [3].

B2: CD155 variant IgV-Fc P18T, S52A, V57A, Q60R, Q62K, S65C, L79P, F91T, N100Y, T107M (Fc fusion, not shown: a dimerising Fc or GST; large carriers; small tags and cut ends)
chain: PGTGDVVVQAPTQVTGFLGDSVTLPCYLQVPNMEVTHVSQLTWARHGEAGSMAAFHRTKGPCYSESKRLEFVAARPGAELRNASLRMTGLRVEDEGYYTCLFVMFPQGSRSVDIWL
For the molecule B2, the MFI at 25 nM with CD112R (human) amounted to 908 MFI; in the experiment with CD96 [2], 3790 MFI; with TIGIT (human) [3] it was 187000 MFI.

B3: CD155 variant IgV-Fc T15S, P18S, Y30H, Q32L, Q62R, L79P, F91S, T107M (Fc fusion, not shown: a dimerising Fc or GST; small tags and cut ends)
chain: PGTGDVVVQAPSQVSGFLGDSVTLPCHLLVPNMEVTHVSQLTWARHGESGSMAVFHQTRGPSYSESKRLEFVAARPGAELRNASLRMSGLRVEDEGNYTCLFVMFPQGSRSVDIWL
B3: the MFI at 25 nM with CD112R (human) is 1060 MFI; in the experiment with CD226 (human) [1] it was 2090 MFI; with TIGIT (human) [3], 16200 MFI.

B4: CD155 variant IgV-Fc V9L, P18F, T45A, S65A, S67V, R78K, L79V, F91S, T107M, S114T (Fc fusion, not shown: a dimerising Fc or GST; small tags and cut ends)
chain: PGTGDLVVQAPTQVFGFLGDSVTLPCYLQVPNMEVTHVSQLAWARHGESGSMAVFHQTQGPAYVESKRLEFVAAKVGAELRNASLRMSGLRVEDEGNYTCLFVMFPQGSRTVDIWL
As for B4, the MFI at 25 nM in the experiment with CD112R (human) stood at 812 MFI; in the experiment with CD226 (human) [1], 154000 MFI; with CD96 [2], 85600 MFI; with TIGIT (human) [3] it was 130000 MFI.

B5: WT CD112-Fc ECD, Q92692 32-360 (Fc fusion, not shown: a dimerising Fc or GST; small tags and cut ends)
chain: QDVRVQVLPEVRGQLGGTVELPCHLLPPVPGLYISLVTWQRPDAPANHQNVAAFHPKMGPSFPSPKPGSERLSFVSAKQSTGQDTEAELQDATLALHGLTVEDEGNYTCEFATFPKGSVRGMTWLRVIAKPKNQAEAQKVTFSQDPTTVALCISKEGRPPARISWLSSLDWEAKETQVSGTLAGTVTVTSRFTLVPSGRADGVTVTCKVEHESFEEPALIPVTLSVRYPPEVSISGYDDNWYLGRTDATLSCDVRSNPEPTGYDWSTTSGTFPTSAVAQGSQLVIHAVDSLFNTTFVCTVTNAVGMGRAEQVIFVRETPNTAGAGATGG
Regarding B5, the Fold Increase to WT IgV in [4] came to 0.75 fold. This molecule gave an MFI at 20 nM in experiment [5] of 1250.

B6: CD155 variant T45Q, S52M, L104E IgV-Fc (Fc fusion, not shown: a dimerising Fc or GST; small tags and cut ends)
chain: PGTGDVVVQAPTQVPGFLGDSVTLPCYLQVPNMEVTHVSQLQWARHGEMGSMAVFHQTQGPSYSESKRLEFVAARLGAELRNASLRMFGLRVEDEGNYTCEFVTFPQGSRSVDIWL
As for B6, the MFI at 100 nM in [6] came out at 2600; in [7] it was 6310; in experiment [8], 79500.

B7: CD155 variant T45Q, S52R, L104E IgV-Fc (Fc fusion, not shown: a dimerising Fc or GST; small tags and cut ends)
chain: PGTGDVVVQAPTQVPGFLGDSVTLPCYLQVPNMEVTHVSQLQWARHGERGSMAVFHQTQGPSYSESKRLEFVAARLGAELRNASLRMFGLRVEDEGNYTCEFVTFPQGSRSVDIWL
With B7, the MFI at 100 nM turned out to be 2620 in [6], 3750 in experiment [7] and 122000 in experiment [8].

B8: CD155 G7E, P18T, Y30C, F91S IgV-Fc (Fc fusion, not shown: a dimerising Fc or GST; small tags and cut ends)
chain: PGTEDVVVQAPTQVTGFLGDSVTLPCCLQVPNMEVTHVSQLTWARHGESGSMAVFHQTQGPSYSESKRLEFVAARLGAELRNASLRMSGLRVEDEGNYTCLFVTFPQGSRSVDIWL
In the case of B8, the MFI with CD96 [9] stood at 7910; with CD226 (human) [10] it was 12900; with TIGIT (human) [11], 13000.

B9: CD155 variant IgV-Fc P18S, S42G, T45V, F58L, S67W, L104N (Fc fusion, not shown: a dimerising Fc or GST; large carriers; small tags and cut ends)
chain: PGTGDVVVQAPTQVSGFLGDSVTLPCYLQVPNMEVTHVGQLVWARHGESGSMAVLHQTQGPSYWESKRLEFVAARLGAELRNASLRMFGLRVEDEGNYTCNFVTFPQGSRSVDIWL
As for B9, the MFI at 100 nM with TIGIT (human) [12] was determined as 14100 MFI.

B10: CD155 variant IgV-Fc P18S, H59R, A76G, R78S, L79P (Fc fusion, not shown: a dimerising Fc or GST; large carriers; small tags and cut ends)
chain: PGTGDVVVQAPTQVSGFLGDSVTLPCYLQVPNMEVTHVSQLTWARHGESGSMAVFRQTQGPSYSESKRLEFVGASPGAELRNASLRMFGLRVEDEGNYTCLFVTFPQGSRSVDIWL
As to B10, the MFI at 25 nM with CD112R (human) was 1010 MFI; with CD226 (human) [1], 79400 MFI; with CD96 [2], 44500 MFI; with TIGIT (human) [3], 131000 MFI.

B11: ICOSL variant N52S/T113E ECD-Fc fusion (Fc fusion, UniProt O75144 19-256 with N52S T113E, looked up, part only)
extracellular domain: DTQEKEVRAMVGSDVELSCACPEGSRFDLNDVYVYWQTSESKTVVTYHIPQSSSLENVDSRYRNRALMSPAGMLRGDFSLRLFNVTPQDEQKFHCLVLSQSLGFQEVLSVEVELHVAANFSVPVVSAPHSPSQDELTFTCTSINGYPRPNVYWINKTDNSLLDQALQNDTVFLNMRGLYDVVSVLRIARTPSVNIGCCIENVLLQQNLTVGSQTGNDIGERDKITENPVSTGEKNAAT
modifications: extracellular domain human IgG1 Fc fusion
B11: the ICOS OD parental ratio (ratio to WT ICOSL ECD-Fc) in experiment [13] worked out at 1.76. Further, in [14], the MFI was 54 MFI and the MFI parental ratio (ratio to WT ICOSL ECD-Fc) stood at 3.

B12: ICOSL variant F120S/Y152H/N201S ECD-Fc fusion (Fc fusion, not shown: a dimerising Fc or GST; small tags and cut ends)
chain: DTQEKEVRAMVGSDVELSCACPEGSRFDLNDVYVYWQTSESKTVVTYHIPQNSSLENVDSRYRNRALMSPAGMLRGDFSLRLFNVTPQDEQKFHCLVLSQSLGFQEVLSVEVTLHVAANSSVPVVSAPHSPSQDELTFTCTSINGYPRPNVHWINKTDNSLLDQALQNDTVFLNMRGLYDVVSVLRIARTPSVNIGCCIESVLLQQNLTVGSQTGNDIGERDKITENPVSTGEKNAAT
B12: the MFI in experiment [14] amounted to 16 MFI.
